First the molecules themselves.
B1: wild-type KHNYN-GFP [human] / ZAP-L (zinc finger antiviral protein, long isoform) [modified: C-terminal S-farnesylation; C-terminal S-farnesylation] [human (endogenous in HeLa)] (parent)
chain 1: MPTWGARPASPDRFAVSAEAENKVREQQPHVERIFSVGVSVLPKDCPDNPHIWLQLEGPKENASRAKEYLKGLCSPELQDEIHYPPKLHCIFLGAQGFFLDCLAWSTSAHLVPRAPGSLMISGLTEAFVMAQSRVEELAERLSWDFTPGPSSGASQCTGVLRDFSALLQSPGDAHREALLQLPLAVQEELLSLVQEASSGQGPGALASWEGRSSALLGAQCQGVRAPPSDGRESLDTGSMGPGDCRGARGDTYAVEKEGGKQGGPREMDWGWKELPGEEAWEREVALRPQSVGGGARESAPLKGKALGKEEIALGGGGFCVHREPPGAHGSCHRAAQSRGASLLQRLHNGNASPPRVPSPPPAPEPPWHCGDRGDCGDRGDVGDRGDKQQGMARGRGPQWKRGARGGNLVTGTQRFKEALQDPFTLCLANVPGQPDLRHIVIDGSNVAMVHGLQHYFSSRGIAIAVQYFWDRGHRDITVFVPQWRFSKDAKVRESHFLQKLYSLSLLSLTPSRVMDGKRISSYDDRFMVKLAEETDGIIVSNDQFRDLAEESEKWMAIIRERLLPFTFVGNLFMVPDDPLGRNGPTLDEFLKKPARTQGSSKAQHPSRGFAEHGKQQQGREEEKGSGGIRKTRETERLRRQLLEVFWGQDHKVDFILQREPYCRDINQLSEALLSLNF
chain 2: MADPEVCCFITKILCAHGGRMALDALLQEIALSEPQLCEVLQVAGPDRFVVLETGGEAGITRSVVATTRARVCRRKYCQRPCDNLHLCKLNLLGRCNYSQSERNLCKYSHEVLSEENFKVLKNHELSGLNKEELAVLLLQSDPFFMPEICKSYKGEGRQQICNQQPPCSRLHICDHFTRGNCRFPNCLRSHNLMDRKVLAIMREHGLNPDVVQNIQDICNSKHMQKNPPGPRAPSSHRRNMAYRARSKSRDRFFQGSQEFLASASASAERSCTPSPDQISHRASLEDAPVDDLTRKFTYLGSQDRARPPSGSSKATDLGGTSQAGTSQRFLENGSQEDLLHGNPGSTYLASNSTSAPNWKSLTSWTNDQGARRKTVFSPTLPAARSSLGSLQTPEAVTTRKGTGLLSSDYRIINGKSGTQDIQPGPLFNNNADGVATDITSTRSLNYKSTSSGHREISSPRIQDAGPASRDVQATGRIADDADPRVALVNDSLSDVTSTTSSRVDDHDSEEICLDHLCKGCPLNGSCSKVHFHLPYRWQMLIGKTWTDFEHMETIEKGYCNPGIHLCSVGSYTINFRVMSCDSFPIRRLSTPSSVTKPANSVFTTKWIWYWKNESGTWIQYGEEKDKRKNSNVDSSYLESLYQSCPRGVVPFQAGSRNYELSFQGMIQTNIASKTQKDVIRRPTFVPQWYVQQMKRGPDHQPAKTSSVSLTATFRPQEDFCFLSSKKYKLSEIHHLHPEYVRVSEHFKASMKNFKIEKIKKIENSELLDKFTWKKSQMKEEGKLLFYATSRAYVESICSNNFDSFLHETHENKYGKGIYFAKDAIYSHKNCPYDAKNVVMFVAQVLVGKFTEGNITYTSPPPQFDSCVDTRSNPSVFVIFQKDQVYPQYVIEYTEDKACVIS

Among the data in publication PMC9888277 are ratio to parent values, retold here.

In the assay the parent is B1. As to the kind of experiment: co-immunoprecipitation (GFP IP, immunoblot for endogenous ZAP, quantified). The following applies: with ZAP-L (zinc finger antiviral protein, long isoform) [modified: C-terminal S-farnesylation, HeLa cell lysates, N = 3, parent: 1, read off a plot. Background: A western blot detects proteins with antibodies after separation by electrophoresis.
Take chain 1 L676Q F678E: the ratio to parent turned out to be 0.38.
